T1: human LAG3 expressed on the cell surface (CHO-LAG3, 293T-LAG3 cells) (human, UniProt P18627 23-525)
T1 construct: Stably transfected CHO or HEK293T cells; also called Human LAG3 (CHO); Human LAG3 (293T)
T1 sequence: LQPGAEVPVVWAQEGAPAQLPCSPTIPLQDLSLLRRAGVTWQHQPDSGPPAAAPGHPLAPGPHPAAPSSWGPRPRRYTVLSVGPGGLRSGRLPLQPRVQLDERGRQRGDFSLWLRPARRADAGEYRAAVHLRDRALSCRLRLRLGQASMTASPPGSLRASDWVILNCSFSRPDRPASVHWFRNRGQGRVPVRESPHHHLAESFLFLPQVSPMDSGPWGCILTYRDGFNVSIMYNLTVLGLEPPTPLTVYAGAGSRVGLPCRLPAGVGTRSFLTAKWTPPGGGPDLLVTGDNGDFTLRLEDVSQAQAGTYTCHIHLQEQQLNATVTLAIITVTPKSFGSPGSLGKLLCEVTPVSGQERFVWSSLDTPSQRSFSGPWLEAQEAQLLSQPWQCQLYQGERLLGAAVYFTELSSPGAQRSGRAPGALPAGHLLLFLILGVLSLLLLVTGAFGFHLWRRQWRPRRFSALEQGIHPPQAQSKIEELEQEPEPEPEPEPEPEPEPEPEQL


How the values were obtained:
[1] = molecular target: T2, human PD-1 expressed on the surface of CHO cells (human, UniProt Q15116 25-288); assay: flow cytometry cell binding on CHO cells expressing human PD-1; PE anti-human IgG detection; one site-specific binding with Hill slope fit
T2 construct: I took it as human PD-1; also called CHO-PD1
T2 sequence (Q15116 25-288 limits assumed): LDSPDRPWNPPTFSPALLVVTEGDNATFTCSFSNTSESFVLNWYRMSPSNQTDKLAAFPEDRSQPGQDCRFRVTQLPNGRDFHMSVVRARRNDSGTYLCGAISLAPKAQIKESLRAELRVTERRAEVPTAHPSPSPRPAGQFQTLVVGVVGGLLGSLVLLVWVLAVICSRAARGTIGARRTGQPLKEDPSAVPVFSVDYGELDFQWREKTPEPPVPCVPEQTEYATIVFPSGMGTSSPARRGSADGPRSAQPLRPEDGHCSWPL
Experimental: (§1) CHO-k cells stably expressing PD-1 or LAG3 (human or cynomolgus) on the cell surface were used to assess binding affinity of anti-PD-1/LAG3 bispecific antibody constructs. Cells were seeded at 100,000 cells/well in 100 μL of FACS buffer (1×PBS, 0.5% BSA, 0.1% sodium azide) in 96-well polypropylene plates. The cells were centrifuged at 1.5K rpm and resuspended with test antibodies diluted in FACS buffer and incubated on ice for 1 hour. The cells were washed twice with FACS buffer and incubated on ice for 30 mins with R-Phycoerythrin-AffiniPure F(ab′)2 Fragment Goat Anti-Human IgG (H+L) secondary detection antibody (1:200 dilution, Jackson ImmunoResearch Laboratories, West Grove, Pa.). The cells were washed twice with FACS buffer, fixed in 4% paraformaldehyde in PBS (Santa Cruz Biotechnology; Dallas, Tex.) for 20 mins on ice in the dark, washed twice with FACS buffer, and analyzed using the BD LSR II Flow Cytometer (BD Biosciences; San Jose, Calif.). Data were analyzed using FlowJo (FlowJo, LLC; Ashland, Oreg.) to determine mean fluorescence intensities. Binding constants were calculated using the statistical software, GraphPad Prism (GraphPad Software; La Jolla, Calif.) using the nonlinear regression equation, one site—specific binding with Hill slope. The secondary antibody by itself was used as a control.

[2] = molecular target: T1, human LAG3 expressed on the cell …; assay: flow cytometry cell binding on CHO cells expressing human LAG3; PE anti-human IgG detection; one site-specific binding with Hill slope fit
Experimental: as §1

[3] = molecular target: T3, rabbit Fc-tagged recombinant human PD1 (rhPD1-rabbit Fc) (human, UniProt Q15116 25-167, limits assumed); assay: flow cytometry competition: inhibition of rhPD1-rabbit Fc binding to human PD-L2 on CHO cells; PE anti-rabbit IgG detection
T3 construct: also called recombinant human PD-1 protein
T3 sequence (Q15116 25-167 limits assumed): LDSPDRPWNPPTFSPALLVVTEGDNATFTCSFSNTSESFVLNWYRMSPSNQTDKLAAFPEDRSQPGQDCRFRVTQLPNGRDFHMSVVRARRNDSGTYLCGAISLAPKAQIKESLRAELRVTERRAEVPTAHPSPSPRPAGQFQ
Experimental: CHO-k cells stably expressing human PD-L1 or PD-L2 were used to measure the ability of anti-PD1/LAG3 bi-specific antibody constructs to block rabbit Fc-tagged recombinant human PD1 (rhPD1-rabbit Fc) protein binding. Cells were seeded at 100,000 cells/well in 100 μL of FACS buffer in 96-well polypropylene plates. The cells were centrifuged and resuspended with test antibodies (2× concentration) diluted in FACS buffer, immediately followed by equal volume of rhPD1-rabbit Fc (added at 2× concentration; 0.2 ng/mL and 0.1 ng/mL final for PD-L1 and PD-L2, respectively). Cells were incubated on ice for 1 hour and washed twice. rhPD1-rabbit Fc binding on CHO-human PD-L1 or PD-L2 cells was detected with R-Phycoerythrin AffiniPure F(ab′)₂ Fragment Goat Anti-Rabbit IgG (H+L) (1:200 dilution, Jackson ImmunoResearch) for 30 minutes. The cells were washed twice with FACS buffer, fixed in 4% paraformaldehyde in PBS for 20 mins on ice in the dark, washed twice with FACS buffer, and analyzed using the BD LSR II Flow Cytometer. Data were analyzed using FlowJo (FlowJo, LLC; Ashland, Oreg.) to determine mean fluorescence intensities. Prism 6 software was used to create one site, specific binding with Hill slope curves (Log transform) to determine IC₅₀ values.

Binder | Bmax [1] | Kd [1] | Bmax [2] | Kd [2] | IC50 [3]
PD-1/LAG3 Bi-specific Construct C: aPD1 1353-G10 Vk1-39LC scFvFc zwB V262E; aLAG3 1449-G09.2 Fab zwA V262E (bispecific antibody, human IgG1, kappa, The N-terminal Met is not included) scFv: EVQLVQSGAEVKKPGASVKVSCKASGYRFPHYGISWVRQAPGQGLEWMGWISAYNGNTNYAQKLQGRVTMTTDTSTNTAYMELRSLRSDDTAVYYCARDVDYGTGSGYWGQGTLVTVSSGGGGSGGGGSGGGGSDIQLTQSPSSLSASVGDRVTITCSGDALPKQYAYWYQQKPGKAPKLLIYKDTERPSGVPSRFSGSSSGTKVTLTISSLQPEDFATYYCQSADNSITYRVFGGGTKVEIKAAGSDQEPKSSDKTHTCPPCPAPELLGGPSVFLFPPKPKDTLMISRTPEVTCEVVDVSHEDPEVKFNWYVDGVEVHNAKTKPREEQYNSTYRVVSVLTVLHQDWLNGKEYKCKVSNKALPAPIEKTISKAKGQPREPQVYVLPPSREEMTKNQVSLLCLVKGFYPSDIAVEWESNGQPENNYLTWPPVLDSDGSFFLYSKLTVDKSRWQQGNVFSCSVMHEALHNHYTQKSLSLSPGK heavy: not shown light: not shown | 3660 MFI | 1.5 nM | 1020 MFI | 0.5 nM | 1.5 nM
PD-1/LAG3 Bi-specific Construct B: aPD1 1353-G10 scFvFc zwB R28T/P30D/H31S V262E; aLAG3 1449-G09.2 Fab zwA V262E (bispecific antibody, human IgG1, kappa, The N-terminal Met is not included) scFv: EVQLVQSGAEVKKPGASVKVSCKASGYTFDSYGISWVRQAPGQGLEWMGWISAYNGNTNYAQKLQGRVTMTTDTSTNTAYMELRSLRSDDTAVYYCARDVDYGTGSGYWGQGTLVTVSSGGGGSGGGGSGGGGSSYELTQPPSVSVSPGQTARITCSGDALPKQYAYWYQQKPGQAPVMVIYKDTERPSGIPERFSGSSSGTKVTLTISGVQAEDEADYYCQSADNSITYRVFGGGTKVTVLAAGSDQEPKSSDKTHTCPPCPAPELLGGPSVFLFPPKPKDTLMISRTPEVTCEVVDVSHEDPEVKFNWYVDGVEVHNAKTKPREEQYNSTYRVVSVLTVLHQDWLNGKEYKCKVSNKALPAPIEKTISKAKGQPREPQVYVLPPSREEMTKNQVSLLCLVKGFYPSDIAVEWESNGQPENNYLTWPPVLDSDGSFFLYSKLTVDKSRWQQGNVFSCSVMHEALHNHYTQKSLSLSPGK heavy: not shown light: not shown | 1970 MFI | 4.3 nM | 975 MFI | 0.4 nM | 3.3 nM

Reference: US20200079850A1 (SUTRO BIOPHARMA, published 2020)
